Data from US11833164B2, “Methods of treating Fabry disease in patients having a mutation in the GLA gene” (Amicus Therapeutics, Inc., priority 2019, dated 2023).
Where a chain is given by its changes, count along the chain named. Names may count otherwise.

B1: V369F (protein)
chain: MQLRNPELHLGCALALRFLALVSWDIPGARALDNGLARTPTMGWLHWERFMCNLDCQEEPDSCISEKLFMEMAELMVSEGWKDAGYEYLCIDDCWMAPQRDSEGRLQADPQRFPHGIRQLANYVHSKGLKLGIYADVGNKTCAGFPGSFGYYDIDAQTFADWGVDLLKFDGCYCDSLENLADGYKHMSLALNRTGRSIVYSCEWPLYMWPFQKPNYTEIRQYCNHWRNFADIDDSWKSIKSILDWTSFNQERIVDVAGPGGWNDPDMLVIGNFGLSWNQQVTQMALWAIMAAPLFMSNDLRHISPQAKALLQDKDVIAINQDPLGKQGYQLRQGDNFEVWERPLSGLAWAVAMINRQEIGGPRSYTIAFASLGKGVACNPACFITQLLPVKRKLGFYEWTSRLRSHINPTGTVLLQLENTMQMSLKDLL
B2: S371C (protein)
chain: B1 chain with F369V, S371C
B3: K374E (protein)
chain: B1 chain with F369V, K374E
B4: K374R (protein)
chain: B1 chain with F369V, K374R
B5: S371T (protein)
chain: B1 chain with F369V, S371T
B6: A370P (protein)
chain: B1 chain with F369V, A370P
B7: V369G (protein)
chain: B1 chain with F369G
B8: G375R (protein)
chain: B1 chain with F369V, G375R
B9: K374T (protein)
chain: B1 chain with F369V, K374T
B10: V369I (protein)
chain: B1 chain with F369I
B11: V376L (protein)
chain: B1 chain with F369V, V376L
B12: K374I (protein)
chain: B1 chain with F369V, K374I
B13: A370D (protein)
chain: B1 chain with F369V, A370D
B14: A370T (protein)
chain: B1 chain with F369V, A370T
B15: G373C (protein)
chain: B1 chain with F369V, G373C
B16: G373A (protein)
chain: B1 chain with F369V, G373A
B17: A370V (protein)
chain: B1 chain with F369V, A370V
B18: A370G (protein)
chain: B1 chain with F369V, A370G
B19: V376E (protein)
chain: B1 chain with F369V, V376E
B20: V369L (protein)
chain: B1 chain with F369L
B21: V376G (protein)
chain: B1 chain with F369V, V376G

tested on: mutant form of α-Gal A expressed in HEK-293 cells; experiment: HEK assay (GLP HEK / Migalastat Amenability Assay): α-Gal A activity in lysates of transiently transfected HEK-293 cells incubated with or without 10 μM migalastat; type: cell-based, human; settings: 10 μM migalastat versus baseline
In short: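 HEK-293 cells transiently transfected with mutant α-Gal A and incubated with or without 10 μM migalastat; lysate activity given as nmol free 4-MU released per mg protein per hour. Values are mean±SEM.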

Row | Molecule | Absolute increase (% WT) | Relative increase
1 | B1 | 19.6 | 1.5
2 | B2 | 11.1 | 1.4
3 | B3 | 14.1 | 1.3
4 | B4 | 17.9 | 1.2
5 | B5 | 26.1 | 1.3
6 | B6 | 16.9 | 1.5
7 | B7 | 5.5 | 3.3
8 | B8 | 18.7 | 1.4
9 | B9 | 30.2 | 1.6
10 | B10 | 19.6 | 1.2
11 | B11 | 19.9 | 1.3
12 | B12 | 21.9 | 2.0
13 | B13 | 22.4 | 1.2
14 | B14 | 17.6 | 1.2
15 | B15 | 8.7 | 3.2
16 | B16 | 12.4 | 1.3
17 | B17 | 20.6 | 1.5
18 | B18 | 22.9 | 1.3
19 | B19 | 21.9 | 1.4
20 | B20 | 30.3 | 1.4
21 | B21 | 28.9 | 1.3

same assay, conditions: absence of migalastat; percentage of baseline wild-type α-Gal A activity; mean ± SEM

Row | Molecule | Baseline α-Gal A activity (% WT)
22 | B1 | 37.7 ± 2.8
23 | B2 | 23.5 ± 1.3
24 | B3 | 49.9 ± 3.6
25 | B4 | 74.3 ± 4.8
26 | B5 | 65 ± 3.3
27 | B6 | 33.9 ± 2.8
28 | B7 | 2.6 ± 0.2
29 | B8 | 41.7 ± 1.9
30 | B9 | 46.1 ± 2.8
31 | B10 | 79.7 ± 6.8
32 | B11 | 82.4 ± 3.4
33 | B12 | 22.3 ± 1.3
34 | B13 | 87.5 ± 6.1
35 | B14 | 79.9 ± 4.3
36 | B15 | 4.3 ± 0.2
37 | B16 | 40.8 ± 1.5
38 | B17 | 40.1 ± 3.1
39 | B18 | 78.1 ± 4.4
40 | B19 | 74 ± 4.6
41 | B20 | 74.2 ± 3.7
42 | B21 | 93.9 ± 4.6

same assay, conditions: lysates of HEK-293 cells transiently transfected with the mutant form, incubated 5 days in absence of migalastat; mean ± SEM

Row | Molecule | Baseline α-Gal A activity [nmol/mg/h]
43 | B1 | 11912 ± 1197
44 | B2 | 10189 ± 1078
45 | B3 | 19699 ± 1718
46 | B4 | 27984 ± 2321
47 | B5 | 27962 ± 2785
48 | B6 | 10431 ± 975
49 | B7 | 803 ± 59
50 | B8 | 15302 ± 1157
51 | B9 | 16418 ± 1050
52 | B10 | 30094 ± 3211
53 | B11 | 27275 ± 1181
54 | B12 | 8194 ± 506
55 | B13 | 27098 ± 2504
56 | B14 | 25024 ± 1951
57 | B15 | 1744 ± 92
58 | B16 | 14426 ± 630
59 | B17 | 15754 ± 1222
60 | B18 | 24835 ± 2637
61 | B19 | 22992 ± 924
62 | B20 | 27680 ± 1912
63 | B21 | 33903 ± 2255

same assay, conditions: lysates of HEK-293 cells transiently transfected with the mutant form, incubated 5 days with 10 μM migalastat; mean ± SEM

Row | Molecule | 10 μM migalastat α-Gal A activity [nmol/mg/h]
64 | B1 | 18282 ± 1960
65 | B2 | 14546 ± 1141
66 | B3 | 24879 ± 2423
67 | B4 | 34403 ± 2426
68 | B5 | 37065 ± 2351
69 | B6 | 15618 ± 1776
70 | B7 | 2628 ± 291
71 | B8 | 22033 ± 1442
72 | B9 | 26614 ± 1659
73 | B10 | 36630 ± 2373
74 | B11 | 34152 ± 1845
75 | B12 | 16076 ± 936
76 | B13 | 33279 ± 2473
77 | B14 | 30276 ± 2364
78 | B15 | 5543 ± 547
79 | B16 | 18622 ± 1289
80 | B17 | 24151 ± 1591
81 | B18 | 31805 ± 3001
82 | B19 | 30929 ± 1635
83 | B20 | 38458 ± 2367
84 | B21 | 44774 ± 2982

same assay, conditions: with 10 μM migalastat, 5 days; percentage of baseline wild-type α-Gal A activity; mean ± SEM

Row | Molecule | 10 μM migalastat α-Gal A activity (% WT)
85 | B1 | 57.3 ± 4.8
86 | B2 | 34.7 ± 1.6
87 | B3 | 64 ± 5.7
88 | B4 | 92.2 ± 4.9
89 | B5 | 91.1 ± 5
90 | B6 | 50.7 ± 5.4
91 | B7 | 8.1 ± 0.7
92 | B8 | 60.4 ± 2.1
93 | B9 | 76.2 ± 5.7
94 | B10 | 99.3 ± 5.5
95 | B11 | 102.3 ± 4.2
96 | B12 | 44.2 ± 2.9
97 | B13 | 109.8 ± 6.8
98 | B14 | 97.5 ± 6.1
99 | B15 | 13 ± 0.9
100 | B16 | 53.2 ± 3.7
101 | B17 | 60.7 ± 3.5
102 | B18 | 101 ± 5.4
103 | B19 | 95.9 ± 3.8
104 | B20 | 104.5 ± 5.6
105 | B21 | 122.9 ± 5.6
